Data published in article PMC6433865, “The cochaperone CHIP marks Hsp70- and Hsp90-bound substrates for degradation through a very flexible mechanism” (Scientific Reports, 2019).

How the values were obtained:
[1] = target: T1, Hsp70 (human (by the printed Entrez Gene code), UniProt P0DMV8 1-641); experiment: cryo-EM structure; ternary complexes after GraFix, vitrified; Titan Krios 300 kV (Hsp70:p53-TMGST:CHIP, 15 Å) or Talos Arctica 200 kV (Hsp90:p53-TMGST:CHIP, 13 Å); atomic structures docked; conditions: both partners purified
T1 construct: Hsp70, Entrez Gene code 3303, cloned in pQE-30; Removal of the His tag is told only for CHIP, UbcH5a, Bag1s and p53DBD, not for Hsp70; source: E. coli, expressed at 16 °C overnight, purified (Ni-NTA, Superdex 200)

[2] = target: T2, Hsp90 (human, UniProt P07900 1-732); experiment: negative-stain electron microscopy, 3D reconstruction; complexes stabilised and isolated by GraFix (10-30% glycerol gradient, 0.15% glutaraldehyde), stained with 2% uranyl acetate, JEOL JEM1010 at 80 kV; atomic structures docked into 19-26 Å volumes; conditions: both partners purified
T2 construct: Homodimer; also called hHsp90; source: E. coli, induced at 30 °C (4 h), purified (Ni-NTA, Superdex 200)

T1 sequence (P0DMV8 whole entry): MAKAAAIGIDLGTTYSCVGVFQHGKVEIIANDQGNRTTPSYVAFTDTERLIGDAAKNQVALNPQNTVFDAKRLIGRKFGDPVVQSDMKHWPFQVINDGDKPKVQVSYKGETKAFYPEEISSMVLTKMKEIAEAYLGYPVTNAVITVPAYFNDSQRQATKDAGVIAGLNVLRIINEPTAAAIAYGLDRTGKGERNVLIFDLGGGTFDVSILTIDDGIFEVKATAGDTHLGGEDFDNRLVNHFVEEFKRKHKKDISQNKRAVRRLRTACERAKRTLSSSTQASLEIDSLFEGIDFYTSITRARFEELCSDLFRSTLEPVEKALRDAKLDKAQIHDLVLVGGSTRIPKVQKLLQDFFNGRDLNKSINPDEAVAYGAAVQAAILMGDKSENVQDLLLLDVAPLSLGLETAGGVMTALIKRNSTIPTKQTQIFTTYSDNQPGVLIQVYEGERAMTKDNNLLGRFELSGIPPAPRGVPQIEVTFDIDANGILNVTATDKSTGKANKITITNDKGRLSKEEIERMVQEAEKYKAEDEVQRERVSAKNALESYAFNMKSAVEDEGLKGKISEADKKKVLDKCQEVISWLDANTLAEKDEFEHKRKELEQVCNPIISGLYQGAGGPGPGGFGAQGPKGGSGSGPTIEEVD

B1: C terminus of Hsc70-interacting protein (CHIP) (enzyme, human, UniProt Q9UNE7 1-303, looked up)
chain: MKGKEEKEGGARLGAGGGSPEKSPSAQELKEQGNRLFVGRKYPEAAACYGRAITRNPLVAVYYTNRALCYLKMQQHEQALADCRRALELDGQSVKAHFFLGQCQLEMESYDEAIANLQRAYSLAKEQRLNFGDDIPSALRIAKKKRWNSIEERRIHQESELHSYLSRLIAAERERELEECQRNHEGDEDDSHVRAQQACIEAKHDKYMADMDELFSQVDEKRKKRDIPDYLCGKISFELMREPCITPSGITYDRKDIEEHLQRVGHFDPVTRSPLTQEQLIPNLAMKEVIDAFISENGWVEDY
notes: human CHIP (hCHIP), Entrez Gene code 10273, cloned in pPROEX HTa; Homodimer, seen as an asymmetric triangular dimer in all reconstructions; also called hCHIP; source: E. coli, induced at 30 °C (4 h), purified (Ni-NTA, TEV cleavage, second Ni-NTA, Superdex 200)
B1: binds [1]; binds [2].
